Starred links: 1 amine or outer side, 2 acyl side, 3 side chain; linkers in the order of their positions; H or OH if unused. Positions of bridges follow the written chain, without caps; N, C: chain ends. No end group written: not given here. TBMB = c1c(C[*:1])cc(C[*:3])cc1C[*:2]
Target: extracellular domain of Transferrin Receptor 1 (UniProt P02786 89-760)
Assay: BLI

Chain of extracellular domain of Transferrin Receptor 1 (P02786 89-760): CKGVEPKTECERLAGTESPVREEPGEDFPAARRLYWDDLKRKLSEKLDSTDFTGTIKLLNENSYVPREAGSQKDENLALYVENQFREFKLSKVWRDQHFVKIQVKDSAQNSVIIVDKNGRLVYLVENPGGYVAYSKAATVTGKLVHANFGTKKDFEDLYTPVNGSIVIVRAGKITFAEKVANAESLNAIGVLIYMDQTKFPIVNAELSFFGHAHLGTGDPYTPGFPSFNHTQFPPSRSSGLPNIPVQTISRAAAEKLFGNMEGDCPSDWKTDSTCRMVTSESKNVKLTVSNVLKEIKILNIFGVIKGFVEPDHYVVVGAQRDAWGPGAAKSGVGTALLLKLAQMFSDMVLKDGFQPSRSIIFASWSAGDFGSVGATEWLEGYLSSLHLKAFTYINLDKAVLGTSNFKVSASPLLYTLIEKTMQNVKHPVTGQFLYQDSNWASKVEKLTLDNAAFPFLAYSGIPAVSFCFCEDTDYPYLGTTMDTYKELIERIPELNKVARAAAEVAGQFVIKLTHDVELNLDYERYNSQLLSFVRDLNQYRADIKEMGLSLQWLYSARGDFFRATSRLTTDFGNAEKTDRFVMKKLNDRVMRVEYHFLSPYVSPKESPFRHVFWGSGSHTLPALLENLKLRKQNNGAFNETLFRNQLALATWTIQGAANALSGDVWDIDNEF

With CVHWDCRQWC (linker 1-6-10 via TBMB) [BrainBike-4 as used in biolayer interferometry] the Kd was 25 µM.

From paper PMC10763564 (2023)
